In publication PMC12149299 (Cell Discovery, 2025):

What was measured:
[1] = target: T1, HIV-1 gp120 protein from the JRCSF.JB strain (HIV-1 group M subtype B, JRCSF (clone …, UniProt P20871, strain)); test: ELISA; details: both partners purified
[2] = target: HIV-1 Env on TNF-α-activated ACH-2 latent HIV-1 cells (HIV-1 group M subtype B, BRU/LAI (ACH-2 …, UniProt P03377, strain)); test: flow cytometry on cells; details: one partner purified
HIV Env on HL2/3 cells = target: T2, HIV Env on HL2/3 cells (HIV-1 group M subtype B, HXB2 (stand-in …, UniProt P04578, strain)); test: flow cytometry on cells; details: one partner purified
T2 construct: source: HL2/3 cells (NIH AIDS Program), expressing HIV Env, on the cell surface

[3] = target: T1, HIV-1 gp120 protein from the JRCSF.JB …; test: ELISA; antigens (2 μg/mL) coated on 96-well plates overnight at 4 °C; antibodies serially diluted in disruption buffer, 1 h; HRP goat anti-human IgG, ABTS, 405 nm; details: both partners purified
[4] = target: HIV-1 gp120 protein from the YU2.DG strain (HIV-1 group M subtype B, YU-2 (clone …, UniProt P35961, strain)); test: as above; details: both partners purified
[5] = target: HIV-1 gp120 protein from the BaL.01 strain (HIV-1 subtype B, BaL.01, UniProt Q2MKA9, strain); test: as above; details: both partners purified

Measured: binding result

B1: CH235.12 (antibody, V domains shown)
VH: QVRLAQYGGGVKRLGATMTLSCVASGYTFNDYYIHWVRQAPGQGFELLGYIDPANGRPDYAGALRERLSFYRDKSMETLYMDLRSLRYDDTAMYYCVRNVGTAGSLLHYDHWGSGSPVIVSS
VL: EIVLTQSPATLSASPGERVTLTCRASRSVRNNVAWYQHKGGQSPRLLIYDASTRAAGVPARFSGSASGTEFTLAISNLESEDFTVYFCLQYNNWWTFGQGTRVDIK
binds: [1]

B2: FD22 (antibody, V domains shown)
VH: QVQLSQSGGGAVQPGKSLTLSCRAYGFHLFSYVVVWVRQTPQNGLEWVAGAASGGWPQEFMNSVRGRFSISRDDYTVSLQMNALRVDDSGLYFCAQERGLHRLDGAVKFGRWFRAWGQGSQVVVTS
VL: QSALTQPASVSGSPGQSITLSCTGADNSVSWYQVVPGRAPKLLIFEVNVRPSEVSDRFSGSKSGDTASLTISRLQIEDESDYYCVTRRGDVTYLFGSGTRVSVL
notes: also called FD22-biotin
not listed: [1]
binds: all other assays above
